Each block holds one binder with its values, some of them ahead of it.
Assays:
Assay in all cases: FACS
[1] = target: α6β1 integrin on Expi293F cells, α6 E219A (human, UniProt P05556 21-798)
[2] = target: α6β1 integrin on Expi293F cells, α6 D205A (human, UniProt P05556 21-798)
[3] = target: α6β1 integrin on Expi293F cells, α6 E221A (human, UniProt P05556 21-798)
[4] = target: α6β1 integrin on Expi293F cells, α6 D153A (human, UniProt P05556 21-798)
[5] = target: α6β1 integrin on Expi293F cells, α6 R157A (human, UniProt P05556 21-798)
[6] = target: α6β1 integrin on Expi293F cells, α6 X1-ΔC (human, UniProt P05556 21-798)
[7] = target: human α6β1 integrin transiently expressed on Expi293F cells, wild type (human, UniProt P05556 21-798)
Sequence of human α6β1 integrin transiently expressed on Expi293F cells, wild type (chain, as listed by the source, chain 1 of 2): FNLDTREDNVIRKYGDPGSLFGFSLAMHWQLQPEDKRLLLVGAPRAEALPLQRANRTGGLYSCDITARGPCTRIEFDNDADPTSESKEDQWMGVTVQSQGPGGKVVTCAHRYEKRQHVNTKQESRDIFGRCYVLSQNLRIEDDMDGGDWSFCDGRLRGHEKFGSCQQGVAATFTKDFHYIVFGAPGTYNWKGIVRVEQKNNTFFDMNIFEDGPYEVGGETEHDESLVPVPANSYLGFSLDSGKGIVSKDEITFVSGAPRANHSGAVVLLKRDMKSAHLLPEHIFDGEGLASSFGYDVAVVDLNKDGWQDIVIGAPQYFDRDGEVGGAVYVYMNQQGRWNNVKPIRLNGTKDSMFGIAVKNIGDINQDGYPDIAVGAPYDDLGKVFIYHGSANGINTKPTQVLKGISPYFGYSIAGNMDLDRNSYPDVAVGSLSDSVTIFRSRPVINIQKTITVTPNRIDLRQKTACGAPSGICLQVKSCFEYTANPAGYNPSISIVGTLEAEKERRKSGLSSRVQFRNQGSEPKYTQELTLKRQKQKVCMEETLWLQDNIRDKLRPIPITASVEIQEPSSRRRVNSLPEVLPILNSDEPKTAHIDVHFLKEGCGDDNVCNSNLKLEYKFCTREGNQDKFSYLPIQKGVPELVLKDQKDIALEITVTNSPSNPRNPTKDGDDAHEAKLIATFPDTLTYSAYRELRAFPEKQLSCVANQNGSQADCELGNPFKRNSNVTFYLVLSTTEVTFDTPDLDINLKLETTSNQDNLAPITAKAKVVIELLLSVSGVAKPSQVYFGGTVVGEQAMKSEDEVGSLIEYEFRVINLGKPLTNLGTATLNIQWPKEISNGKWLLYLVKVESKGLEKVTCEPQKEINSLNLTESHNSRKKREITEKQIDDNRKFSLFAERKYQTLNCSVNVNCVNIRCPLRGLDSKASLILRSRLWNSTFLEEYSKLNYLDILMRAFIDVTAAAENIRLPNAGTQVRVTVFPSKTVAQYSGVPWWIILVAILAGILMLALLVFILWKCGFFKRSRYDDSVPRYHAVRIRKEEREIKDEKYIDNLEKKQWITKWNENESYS
Sequence of human α6β1 integrin transiently expressed on Expi293F cells, wild type (P05556 21-798, chain 2 of 2): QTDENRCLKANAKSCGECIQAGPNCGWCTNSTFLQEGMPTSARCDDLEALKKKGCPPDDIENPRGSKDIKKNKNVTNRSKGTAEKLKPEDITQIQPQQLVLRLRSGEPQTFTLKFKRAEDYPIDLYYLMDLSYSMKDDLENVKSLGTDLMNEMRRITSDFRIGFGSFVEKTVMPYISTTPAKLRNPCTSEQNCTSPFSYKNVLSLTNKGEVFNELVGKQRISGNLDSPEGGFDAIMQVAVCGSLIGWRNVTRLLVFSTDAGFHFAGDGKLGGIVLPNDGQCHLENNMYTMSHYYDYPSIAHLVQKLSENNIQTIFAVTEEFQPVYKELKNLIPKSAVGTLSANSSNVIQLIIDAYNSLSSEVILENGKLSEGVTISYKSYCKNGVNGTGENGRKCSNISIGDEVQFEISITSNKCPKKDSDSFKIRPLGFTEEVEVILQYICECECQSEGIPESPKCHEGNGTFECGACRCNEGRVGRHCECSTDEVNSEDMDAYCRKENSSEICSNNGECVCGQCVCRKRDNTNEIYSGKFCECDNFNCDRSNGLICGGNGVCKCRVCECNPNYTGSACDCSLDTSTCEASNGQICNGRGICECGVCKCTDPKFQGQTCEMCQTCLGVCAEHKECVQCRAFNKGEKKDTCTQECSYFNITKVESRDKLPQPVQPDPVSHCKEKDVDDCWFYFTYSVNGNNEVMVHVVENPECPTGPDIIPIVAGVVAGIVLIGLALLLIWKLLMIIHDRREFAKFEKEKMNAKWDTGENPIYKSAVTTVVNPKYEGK

Sequence of α6β1 integrin on Expi293F cells, α6 D205A (chain, as listed by the source D205A, chain 1 of 2): as the sequence (chain, as listed by the source, chain 1 of 2) above, with D205A counted along it
Sequence of α6β1 integrin on Expi293F cells, α6 D205A (P05556 21-798, chain 2 of 2): as the sequence (P05556 21-798, chain 2 of 2) above
Sequence of α6β1 integrin on Expi293F cells, α6 D153A (chain, as listed by the source D153A, chain 1 of 2): as the sequence (chain, as listed by the source, chain 1 of 2) above, with D153A counted along it
Sequence of α6β1 integrin on Expi293F cells, α6 D153A (P05556 21-798, chain 2 of 2): as the sequence (P05556 21-798, chain 2 of 2) above
Sequence of α6β1 integrin on Expi293F cells, α6 E221A (chain, as listed by the source E221A, chain 1 of 2): as the sequence (chain, as listed by the source, chain 1 of 2) above, with E221A counted along it
Sequence of α6β1 integrin on Expi293F cells, α6 E221A (P05556 21-798, chain 2 of 2): as the sequence (P05556 21-798, chain 2 of 2) above
Sequence of α6β1 integrin on Expi293F cells, α6 R157A (chain, as listed by the source R157A, chain 1 of 2): as the sequence (chain, as listed by the source, chain 1 of 2) above, with R157A counted along it
Sequence of α6β1 integrin on Expi293F cells, α6 R157A (P05556 21-798, chain 2 of 2): as the sequence (P05556 21-798, chain 2 of 2) above
Sequence of α6β1 integrin on Expi293F cells, α6 E219A (chain, as listed by the source E219A, chain 1 of 2): as the sequence (chain, as listed by the source, chain 1 of 2) above, with E219A counted along it
Sequence of α6β1 integrin on Expi293F cells, α6 E219A (P05556 21-798, chain 2 of 2): as the sequence (P05556 21-798, chain 2 of 2) above
Sequence of α6β1 integrin on Expi293F cells, α6 X1-ΔC (P05556 whole entry, looked up, stated change not applied): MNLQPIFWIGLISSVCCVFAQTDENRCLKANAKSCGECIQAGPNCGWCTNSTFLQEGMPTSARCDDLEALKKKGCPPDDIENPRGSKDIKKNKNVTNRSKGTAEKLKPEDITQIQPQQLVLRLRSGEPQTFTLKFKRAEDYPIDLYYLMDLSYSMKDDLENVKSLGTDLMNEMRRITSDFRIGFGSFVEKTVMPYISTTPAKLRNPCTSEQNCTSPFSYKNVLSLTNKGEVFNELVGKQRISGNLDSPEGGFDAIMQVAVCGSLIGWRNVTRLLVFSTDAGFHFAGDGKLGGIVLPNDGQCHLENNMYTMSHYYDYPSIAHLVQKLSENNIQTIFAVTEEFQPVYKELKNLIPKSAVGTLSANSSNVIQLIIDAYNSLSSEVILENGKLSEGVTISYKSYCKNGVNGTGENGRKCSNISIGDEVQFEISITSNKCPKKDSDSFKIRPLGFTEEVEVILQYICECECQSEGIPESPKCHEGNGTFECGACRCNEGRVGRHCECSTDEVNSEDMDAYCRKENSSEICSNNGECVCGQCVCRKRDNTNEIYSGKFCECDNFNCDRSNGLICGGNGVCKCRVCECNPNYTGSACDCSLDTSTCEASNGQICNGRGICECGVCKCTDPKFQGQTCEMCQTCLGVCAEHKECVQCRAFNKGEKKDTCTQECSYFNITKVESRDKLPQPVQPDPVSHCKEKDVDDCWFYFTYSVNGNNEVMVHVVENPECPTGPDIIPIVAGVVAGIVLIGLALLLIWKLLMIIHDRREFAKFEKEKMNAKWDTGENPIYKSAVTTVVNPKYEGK

Kd [1]: 134 nM
Kd [2]: 60.1 nM
Kd [3]: 32.5 nM
Kd [4]: 45.2 nM
Kd [5]: 28.8 nM
B1: trimeric fusion protein PA-sfGFP-tLM511 (complex)
chain 1: ENVERWQGQYEGLRGQDLGQAVLDAGHSVSTLEKTLPQLLAKLSILENRGVHNASLALSASIGRVRELIAQARGAASKVKVPMKFNGRSGVQLRTPRDLADLAAYTALKFYLQGPEPEPGQGTEDRFVMYMGSRQATGDYMGVSLRDKKVHWVYQLGEAGPAVLSIDEDIGEQFAAVSLDRTLQFGHMSVTVERQMIQETKGDTVAPGAEGLLNLRPDDFVFYVGGYPSTFTPPPLLRFPGYRGCIEMDTLNEEVVSLYNFERTFQLDTAVDRPCARSKSTGDPWLTDGSYLDGTGFARISFDSQISTTKRFEQELRLVSYSGVLFFLKQQSQFLCLAVQEGSLVLLYDFGAGLKKAVPLQPPPPLTSASKAIQVFLLGGSRKRVLVRVERATVYSVEQDNDLELADAYYLGGVPPDQLPPSLRRLFPTGGSVRGCVKGIKALGKYVDLKRLNTTGVSAGCTADLLVGRAMTFHGHGFLRLALSNVAPLTGNVYSGFGFHSAQDSALLYYRASPDGLCQVSLQQGRVSLQLLRTEVKTQAGFADGAPHYVAFYSNATGVWLYVDDQLQQMKPHRGPPPELQPQPEGPPRLLLGGLPESGTIYNFSGCISNVFVQRLLGPQRVFDLQQNLGSVNVSTGCAPALQAQTPGLGPRGLQATARKASRRSRQPARHPA
chain 2: not shown
chain 3: DTVDLNKLNEIEGTLNKAKDEMKVSDLDRKVSDLENEAKKQEAAIMDYNRDIEEIMKDIRNLEDIRKTLPSGCFNTPSIEKP
modifications: Mn2+; A cytoplasmic form assumed

Kd [6]: 127 nM
B2: trimeric fusion protein PA-sfGFP-tLM511 (complex)
chain 1: B1 chain 1
chain 2: not shown
chain 3: B1 chain 3

Kd [7]: 12.5 nM
B3: trimeric fusion protein PA-sfGFP-tLM511 (complex)
chain 1: B1 chain 1
chain 2: not shown
chain 3: B1 chain 3
modifications: assayed with 0.5 mM Mn2+; X1 variant without the 39-residue X2 insert (P23229 displayed = X1X2A; mature 988 = 1050 gives offset 62 after X2); A/B cytoplasmic form not given, A taken; alpha6 may be furin-cleaved; signal peptides removed

Reference: publication PMC8241838 (2021)
